According to patent US20170128490A1:

Target: RGD-recognizing receptors (on monocytes)
Assay: cell-based or functional assay

long-duration monocyte-platelet interactions (video analysis, flow): 44 % decrease
Binder: RGDS [small RGD peptides, containing the amino-acid sequence Arg-Gly-Asp-Ser]
